In patent US20230078265A1, “METHODS AND COMPOSITIONS FOR EDITING NUCLEOTIDE SEQUENCES” (The Broad Institute, Inc., priority 2019, published 2023):

B1: 175-307 deletion: SpCas9 mutation relative to SEQ ID NO: 18 (protein)
chain: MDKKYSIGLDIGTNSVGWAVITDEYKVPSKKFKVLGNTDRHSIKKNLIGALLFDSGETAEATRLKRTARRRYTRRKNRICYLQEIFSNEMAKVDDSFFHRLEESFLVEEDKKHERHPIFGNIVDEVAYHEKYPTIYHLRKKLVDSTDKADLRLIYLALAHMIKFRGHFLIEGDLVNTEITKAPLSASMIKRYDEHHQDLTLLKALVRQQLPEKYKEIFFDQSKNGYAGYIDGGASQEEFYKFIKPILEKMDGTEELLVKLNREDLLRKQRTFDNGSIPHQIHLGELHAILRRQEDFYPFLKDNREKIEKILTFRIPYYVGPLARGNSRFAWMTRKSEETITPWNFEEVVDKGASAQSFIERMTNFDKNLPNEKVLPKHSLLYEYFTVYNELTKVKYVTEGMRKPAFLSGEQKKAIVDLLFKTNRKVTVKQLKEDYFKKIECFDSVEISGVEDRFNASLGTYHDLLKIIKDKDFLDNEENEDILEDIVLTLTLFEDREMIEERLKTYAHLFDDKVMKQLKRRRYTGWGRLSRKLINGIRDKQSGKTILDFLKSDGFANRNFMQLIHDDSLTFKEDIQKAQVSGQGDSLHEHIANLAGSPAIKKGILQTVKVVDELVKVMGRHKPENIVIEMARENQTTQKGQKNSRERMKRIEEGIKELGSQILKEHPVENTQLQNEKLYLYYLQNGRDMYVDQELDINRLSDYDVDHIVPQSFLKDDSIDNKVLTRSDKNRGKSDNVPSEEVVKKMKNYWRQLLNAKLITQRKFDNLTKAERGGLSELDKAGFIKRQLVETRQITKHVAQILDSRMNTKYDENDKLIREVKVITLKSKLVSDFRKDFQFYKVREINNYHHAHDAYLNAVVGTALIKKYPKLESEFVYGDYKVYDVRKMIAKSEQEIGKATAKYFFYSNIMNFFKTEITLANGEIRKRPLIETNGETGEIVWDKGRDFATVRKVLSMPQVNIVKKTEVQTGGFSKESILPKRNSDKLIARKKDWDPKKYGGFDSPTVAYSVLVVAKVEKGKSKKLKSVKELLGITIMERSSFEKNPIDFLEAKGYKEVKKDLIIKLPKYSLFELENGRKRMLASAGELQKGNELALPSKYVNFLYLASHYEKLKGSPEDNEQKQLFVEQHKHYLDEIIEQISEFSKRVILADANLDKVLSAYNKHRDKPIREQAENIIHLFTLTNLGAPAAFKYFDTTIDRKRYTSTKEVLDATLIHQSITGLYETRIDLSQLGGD
modifications: Streptococcus pyogenes
B2: 1024-CFN: intein-split PE with extein residues mutated to Npu-native CFN (protein)
chain: MKRTADGSEFESPKKKRKVIKIATRKYLGKQNVYDIGVERDHNFALKNGFIASNCFNEIGKATAKYFFYSNIMNFFKTEITLANGEIRKRPLIETNGETGEIVWDKGRDFATVRKVLSMPQVNIVKKTEVQTGGFSKESILPKRNSDKLIARKKDWDPKKYGGFDSPTVAYSVLVVAKVEKGKSKKLKSVKELLGITIMERSSFEKNPIDFLEAKGYKEVKKDLIIKLPKYSLFELENGRKRMLASAGELQKGNELALPSKYVNFLYLASHYEKLKGSPEDNEQKQLFVEQHKHYLDEIIEQISEFSKRVILADANLDKVLSAYNKHRDKPIREQAENIIHLFTLTNLGAPAAFKYFDTTIDRKRYTSTKEVLDATLIHQSITGLYETRIDLSQLGGDSGGSSGGSSGSETPGTSESATPESSGGSSGGSSTLNIEDEYRLHETSKEPDVSLGSTWLSDFPQAWAETGGMGLAVRQAPLIIPLKATSTPVSIKQYPMSQEARLGIKPHIQRLLDQGILVPCQSPWNTPLLPVKKPGTNDYRPVQDLREVNKRVEDIHPTVPNPYNLLSGLPPSHQWYTVLDLKDAFFCLRLHPTSQPLFAFEWRDPEMGISGQLTWTRLPQGFKNSPTLFNEALHRDLADFRIQHPDLILLQYVDDLLLAATSELDCQQGTRALLQTLGNLGYRASAKKAQICQKQVKYLGYLLKEGQRWLTEARKETVMGQPTPKTPRQLREFLGKAGFCRLFIPGFAEMAAPLYPLTKPGTLFNWGPDQQKAYQEIKQALLTAPALGLPDLTKPFELFVDEKQGYAKGVLTQKLGPWRRPVAYLSKKLDPVAAGWPPCLRMVAAIAVLTKDAGKLTMGQPLVILAPHAVEALVKQPPDRWLSNARMTHYQALLLDTDRVQFGPVVALNPATLLPLPEEGLQHNCLDILAEAHGTRPDLTDQPLPDADHTWYTDGSSLLQEGQRKAGAAVTTETEVIWAKALPAGTSAQRAELIALTQALKMAEGKKLNVYTDSRYAFATAHIHGEIYRRRGWLTSEGKEIKNKDEILALLKALFLPKRLSIIHCPGHQKGHSAEARGNRMADQAARKAAITETPDTSTLLIENSSPSGGSKRTADGSEFEPKKKRK

What was measured:
DNA = settings: mutation relative to canonical SpCas9, SEQ ID NO: 18; cited from earlier work
HEK cells = experiment: Npu intein-split prime editors, plasmid transfection of HEK cells, high-throughput sequencing; assay type: cell-based; settings: plasmids, split site 1023/1024
Source text: This Example is focused on a PE fusion protein comprising the canonical SpCas9 (SEQ ID NO: 18). The split sites for other Cas9 proteins may be the corresponding same site, or may need to be optimized for each different Cas9 protein. In the instant Example, the prime editor was split between residues 1023 and 1024 of SpCas9 (SEQ ID NO: 18). This is referred to as the “1023/1024” split site.
Prime editors (PEs) exceed the AAV packaging capacity.
It was therefore determined whether mutation from the Cas9-native “SEQ” towards the Npu intein “CFN” sequence altered efficiency of prime editing.

Row | Molecule | decreased DNA cleavage (DNA) | prime editing activity compared with full-length PE3 (HEK cells)
1 | B1 | About 50% decreased DNA cleavage | –
2 | B2 | – | recapitulates full-length PE3 activity
